The results in this text go back to paper doi:10.1101/2022.02.28.481274 (bioRxiv, 2022).

For one data set, the target named is T1, NocΔCTD-His6 (Bacillus subtilis, UniProt P37524 1-242).
T1 sequence: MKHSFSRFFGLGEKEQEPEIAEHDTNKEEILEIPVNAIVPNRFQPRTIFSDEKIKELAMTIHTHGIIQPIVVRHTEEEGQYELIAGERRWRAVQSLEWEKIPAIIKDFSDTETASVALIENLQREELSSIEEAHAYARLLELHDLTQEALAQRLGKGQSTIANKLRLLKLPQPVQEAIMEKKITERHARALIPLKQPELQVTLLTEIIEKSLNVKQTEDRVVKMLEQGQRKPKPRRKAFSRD
Nature of the data set: X-ray crystallography.

The data set “crystal structure” concerns the molecule itself. The data set can be described thus: crystal structure.

B1: 16-bp NBS (dsDNA)
DNA 1: TATTTCCCGGGAAATA
DNA 2: TATTTCCCGGGAAATA
In the case of B1, in the data set with NocΔCTD-His6, the binding result is listed as “binds”.

B2: Bacillus subtilis NocΔCTD-His6 (domain or fragment, UniProt P37524 1-242, looked up)
chain: T1 sequence
As a reminder, the stoichiometry N is a count of units in the complex or per binding partner. Regarding B2, the “stoichiometry N” value in “crystal structure” was 2.
